# Legend:
# [1] = molecular target: mannose 6-phosphate receptor (M6PR) on K-562 cells; assay: cell-based or functional assay
# [2] = molecular target: mannose 6-phosphate receptor (M6PR) on K-562 cells; assay: flow cytometry on K-562 cells expressing M6PR; reference T028100075-bis-M6P(1x)
# [3] = molecular target: mannose 6-phosphate receptor (M6PR) on K-562 cells; assay: flow cytometry on K-562 cells expressing M6PR, detection with HSA-biotin and streptavidin-phycoerythrin
decrease in internalization potency on K-562 cells against the 3x bis-M6P conjugates [1] [fold],"internalization potency on K-562 cells, EC50 [M] (HSA-pHAb, flow cytometry) [1]",increase in specific cell binding against the molecule with a single bisM6P (DOL 1) (orders of magnitude) [2],EC50 [3] [nM],Binder
20,5.64e-08,,,"T028100075-bis-M6P(1x) (bispecific antibody, bisM6P-PEG4-maleimide conjugated to the thiol of the C-terminal Cys (-GGC) of the building block (SEQ ID NO.: 175); DOL by mass spec 1.00) DVQLVESGGGVVQPGGSLRLSCAASGFTFRSFGMSWVRQAPGKGPEWVSSISGSGSDTLYADSVKGRFTISRDNSKNTLYLQMNSLRPEDTALYYCTIGGSLSRSSQGTLVTVSSGGGGSGGGGSGGGGSEVQLVESGGGLVQAGGSLSISCAASGGSLSNYVLGWFRQAPGKEREFVAAINWRGDITIGPPNVEGRFTISRDNAKNTGYLQMNSLAPDDTAVYYCGAGTPLNPGAYIYDWSYDYWGRGTLVTVSSGGC"
,3.86e-09,> 2,0.143,"T028100069-bis-M6P(3x) (bispecific antibody, bisM6P-PEG4-maleimide conjugated to the thiols of the three engineered Cys of the ISVD-based building block (Kabat positions 43, 100f and 105 of SEQ ID NO.: 80); DOL by mass spec 2.90) DVQLVESGGGVVQPGGSLRLSCAASGFTFRSFGMSWVRQAPGKGPEWVSSISGSGSDTLYADSVKGRFTISRDNSKNTLYLQMNSLRPEDTALYYCTIGGSLSRSSQGTLVTVSSGGGGSGGGGSGGGGSEVQLVESGGGLVQAGGSLSISCAASGGSLSNYVLGWFRQAPGCEREFVAAINWRGDITIGPPNVEGRFTISRDNAKNTGYLQMNSLAPDDTAVYYCGAGTPLNPGAYIYCWSYDYWGCGTLVTVSS"
,2.88e-09,> 2,0.154,"T028100070-bis-M6P(3x) (bispecific antibody, bisM6P-PEG4-maleimide conjugated to the thiols of the three engineered Cys of the ISVD-based building block (Kabat positions 43, 75 and 100a of SEQ ID NO.: 81); DOL by mass spec 2.84) DVQLVESGGGVVQPGGSLRLSCAASGFTFRSFGMSWVRQAPGKGPEWVSSISGSGSDTLYADSVKGRFTISRDNSKNTLYLQMNSLRPEDTALYYCTIGGSLSRSSQGTLVTVSSGGGGSGGGGSGGGGSEVQLVESGGGLVQAGGSLSISCAASGGSLSNYVLGWFRQAPGCEREFVAAINWRGDITIGPPNVEGRFTISRDNACNTGYLQMNSLAPDDTAVYYCGAGTPLNPCAYIYDWSYDYWGRGTLVTVSS"

# Reference: patent publication US20240415974A1
